Each block holds one substance with its values, some of them ahead of it.
Experiments:
[1] = target: rHuman Notch-1/Fc Chimera, CF (R&D Systems Cat#3647-TK) (human) (UniProt P46531); assay: ECL Multispot (MSD) assay, antigen spotted on plate, 10 nM Fab
[2] = target: rHuman CD44/Fc Chimera, CF (R&D Systems Cat#3660-CD) (human) (UniProt P16070); assay: ECL multispot (MSD) binding assay; antigen spotted on plate, Fab in solution, Ru-labelled anti-kappa detection
[3] = target: rHuman Erythropoietin R/Fc Chimera, CF (R&D Systems Cat#963-ER) (human) (UniProt P19235); assay: as above
[4] = target: rHuman ErbB2/Fc Chimera, CF (R&D Systems Cat#1129-ER) (human) (UniProt P04626); assay: as above
[5] = target: rHuman Notch-1/Fc Chimera, CF (R&D Systems Cat#3647-TK) (human) (UniProt P46531); assay: as above
[6] = target: rHuman Erythropoietin R/Fc Chimera, CF (R&D Systems Cat#963-ER) (human) (UniProt P19235); assay: Multispot ECL (MSD) assay, antigen spotted on plate, Fab at 42.112 nM; blank spot 323
[7] = target: rHuman Erythropoietin R/Fc Chimera, CF (R&D Systems Cat#963-ER) (human) (UniProt P19235); assay: Multispot ECL (MSD) assay, antigen spotted on plate, Fab at 421.12 nM; blank spot 639
[8] = target: rHuman Notch-1/Fc Chimera, CF (R&D Systems Cat#3647-TK) (human) (UniProt P46531); assay: ECL (MSD) multispot binding assay, antigen spotted on plate, 20 nM Fab
[9] = target: rHuman Erythropoietin R/Fc Chimera, CF (R&D Systems Cat#963-ER) (human) (UniProt P19235); assay: ECL multispot (MSD) assay, antigen spotted on plate, 10 nM Fab
[10] = target: rHuman IGF-1 sR, (IGF-1 sR), CF (R&D Systems Cat#391-GR) (human) (UniProt P08069); assay: Multispot ECL (MSD), antigen spotted on plate, Fab 52.5 nM; blank spot 467
[11] = target: rHuman IGF-1 sR, (IGF-1 sR), CF (R&D Systems Cat#391-GR) (human) (UniProt P08069); assay: Multispot ECL (MSD), antigen spotted on plate, Fab 210 nM; blank spot 833
[12] = target: rHuman IGF-1 sR, (IGF-1 sR), CF (R&D Systems Cat#391-GR) (human) (UniProt P08069); assay: Multispot ECL (MSD), antigen spotted on plate, Fab […]; blank spot 359
[13] = target: rHuman IGF-1 sR, (IGF-1 sR), CF (R&D Systems Cat#391-GR) (human) (UniProt P08069); assay: Multispot ECL (MSD), antigen spotted on plate, Fab […]; blank spot 376
[14] = target: Recombinant Human DLL4 (R&D Systems Cat#1506-D4/CF) (human) (UniProt Q9NR61); assay: ECL (MSD) multispot binding assay, antigen spotted on plate, Fab in solution
[15] = target: rHuman HGF R/c-MET/Fc Chimera, CF (R&D Systems Cat#358-MT/CF) (human) (UniProt P08581); assay: Multispot ECL (MSD), antigen spotted on plate, Fab 1.2 nM; blank spot 227
[16] = target: rHuman ErbB2/Fc Chimera, CF (R&D Systems Cat#1129-ER) (human) (UniProt P04626); assay: as above
[17] = target: rHuman Notch-1/Fc Chimera, CF (R&D Systems Cat#3647-TK) (human) (UniProt P46531); assay: as above
[18] = target: Recombinant Human DLL4 (R&D Systems Cat#1506-D4/CF) (human) (UniProt Q9NR61); assay: as above
[19] = target: rHuman HGF R/c-MET/Fc Chimera, CF (R&D Systems Cat#358-MT/CF) (human) (UniProt P08581); assay: Multispot ECL (MSD), antigen spotted on plate, Fab 120 nM; blank spot 6749
[20] = target: rHuman ErbB2/Fc Chimera, CF (R&D Systems Cat#1129-ER) (human) (UniProt P04626); assay: as above
[21] = target: rHuman Notch-1/Fc Chimera, CF (R&D Systems Cat#3647-TK) (human) (UniProt P46531); assay: as above
[22] = target: Recombinant Human DLL4 (R&D Systems Cat#1506-D4/CF) (human) (UniProt Q9NR61); assay: as above
[23] = target: rHuman HGF R/c-MET/Fc Chimera, CF (R&D Systems Cat#358-MT/CF) (human) (UniProt P08581); assay: Multispot ECL (MSD), antigen spotted on plate, Fab 0.12 nM; blank spot 264
[24] = target: rHuman ErbB2/Fc Chimera, CF (R&D Systems Cat#1129-ER) (human) (UniProt P04626); assay: as above
[25] = target: rHuman Notch-1/Fc Chimera, CF (R&D Systems Cat#3647-TK) (human) (UniProt P46531); assay: as above
[26] = target: Recombinant Human DLL4 (R&D Systems Cat#1506-D4/CF) (human) (UniProt Q9NR61); assay: as above
[27] = target: rHuman HGF R/c-MET/Fc Chimera, CF (R&D Systems Cat#358-MT/CF) (human) (UniProt P08581); assay: Multispot ECL (MSD), antigen spotted on plate, Fab 12 nM; blank spot 573
[28] = target: rHuman ErbB2/Fc Chimera, CF (R&D Systems Cat#1129-ER) (human) (UniProt P04626); assay: as above
[29] = target: rHuman Notch-1/Fc Chimera, CF (R&D Systems Cat#3647-TK) (human) (UniProt P46531); assay: as above
[30] = target: Recombinant Human DLL4 (R&D Systems Cat#1506-D4/CF) (human) (UniProt Q9NR61); assay: as above
[31] = target: rHuman CD44/Fc Chimera, CF (R&D Systems Cat#3660-CD) (human) (UniProt P16070); assay: ECL multispot (MSD) assay, antigen spotted on plate, 20 nM Fab
[32] = target: rHuman Notch-1/Fc Chimera, CF (R&D Systems Cat#3647-TK) (human) (UniProt P46531); assay: as above
[33] = target: rHuman IGF-1 sR, CF (R&D Systems Cat#391-GR) (human) (UniProt P08069); assay: as above
[34] = target: rHuman EGF R/Fc Chimera, CF (R&D Systems Cat#344-ER) (human) (UniProt P00533); assay: as above
[35] = target: rHuman CD44/Fc Chimera, CF (R&D Systems Cat#3660-CD) (human) (UniProt P16070); assay: ECL multispot (MSD), antigen spotted, Fab in solution
[36] = target: rHuman HGF R/c-MET/Fc Chimera, CF (R&D Systems Cat#358-MT/CF) (human) (UniProt P08581); assay: as above
[37] = target: rHuman Erythropoietin R/Fc Chimera, CF (R&D Systems Cat#963-ER) (human) (UniProt P19235); assay: as above
[38] = target: rHuman P-Cadherin/Fc Chimera, CF (R&D Systems Cat#861-PC) (human) (UniProt P22223); assay: as above
[39] = target: rHuman Notch-1/Fc Chimera, CF (R&D Systems Cat#3647-TK) (human) (UniProt P46531); assay: as above
[40] = target: Recombinant Human DLL4 (R&D Systems Cat#1506-D4/CF) (human) (UniProt Q9NR61); assay: as above
[41] = target: rHuman IGF-1 sR, CF (R&D Systems Cat#391-GR) (human) (UniProt P08069); assay: as above
[42] = target: rHuman EGF R/Fc Chimera, CF (R&D Systems Cat#344-ER) (human) (UniProt P00533); assay: as above

Substance: Fab VH1-46_IGHD6-6*01_IGHJ1*01 S102A/S103P/S104F/H111F F29A & L6_IGKJ1*01
ECL signal [1]: 374
ECL signal [2]: 978
ECL signal [3]: 1060
ECL signal [4]: 1290
ECL signal [5]: 6090

Substance: Fab VH3-23_IGHD3-10*01>1′_IGHJ3*01 & O12_IGKJ1*01
ECL signal [6]: 759
ECL signal [7]: 1300

Substance: Fab VH3-23_IGHD2-21*01>3_IGHJ6*01 H100E/S108P/Y113G Y114H & V2-13_IGLJ2*01
ECL multispot value [8]: 3.3

Substance: Fab VH3-23_IGHD3-10*01>3_IGHJ6*01 R104A & O12_IGKJ1*01
ECL multispot value (looks like signal/blank ratio; not labelled) [14]: 2.7

Substance: Fab VH3-23_IGHD3-10*01>3_IGHJ6*01 & O12_IGKJ1*01
ECL signal [15]: 412
ECL signal [16]: 677
ECL signal [17]: 660
ECL signal [18]: 319
ECL signal [19]: 15900
ECL signal [20]: 17300
ECL signal [21]: 14400
ECL signal [22]: 20600
ECL signal [23]: 287
ECL signal [24]: 287
ECL signal [25]: 218
ECL signal [26]: 210
ECL signal [27]: 2700
ECL signal [28]: 4360
ECL signal [29]: 2580
ECL signal [30]: 2510

Second part, the substance after the results:

ECL signal [9]: 438
Substance: Fab VH1-46_IGHD6-6*01_IGHJ1*01 S102A/S103P/S104F/H111F & L6_IGKJ1*01

ECL signal at 52.5 nM Fab [10]: 911
ECL signal at 210 nM Fab [11]: 1430
ECL signal at 3.3 nM Fab [12]: 743
ECL signal at 13.1 nM Fab [13]: 814
Substance: Fab VH4-31_IGHD2-15*01_IGHJ2*01 & V1-4_IGLJ4*01

ECL multispot value [8]: 3.3
Substance: Fab VH3-23_IGHD2-21*01>3_IGHJ6*01 H100E/S108P/Y113G Y114E & V2-13_IGLJ2*01

ECL multispot value (looks like signal/blank ratio; not labelled) [14]: 2.7
Substance: Fab VH3-23_IGHD3-10*01>3_IGHJ6*01 Y115G & O12_IGKJ1*01

ECL signal/blank ratio (read-out not given) [31]: 1.7
ECL signal/blank ratio (read-out not given) [32]: 3
ECL signal/blank ratio (read-out not given) [33]: 1.4
ECL signal/blank ratio (read-out not given) [34]: 7.1
Substance: Fab VH3-23_IGHD2-21*01>3_IGHJ6*01 H100E/S108P K65A & V2-13_IGLJ2*01

ECL signal/blank ratio [35]: 1.4
ECL signal/blank ratio [36]: 1.4
ECL signal/blank ratio [37]: 2.4
ECL signal/blank ratio [38]: 3
ECL signal/blank ratio [39]: 1.7
ECL signal/blank ratio [40]: 1.8
ECL signal/blank ratio [41]: 1.6
ECL signal/blank ratio [42]: 1.2
Substance: Fab VH3-23_IGHD3-10*01>3_IGHJ6*01 Y112Q & O12_IGKJ1*01

Source: US20120316071A1
